Results on 11 molecules are retold here after US20180155451A1 (published 2018).

This assay deals with T1, FcγRIIIa extracellular domain with C-terminal His tag (human, UniProt P08637 17-208).
T1 construct: extracellular domain; also called FcgRIIIa; 3a
Description: SPR, relative to GpH7-A5/GpH7-B3/GpL16-k0.

T1 sequence (P08637 17-208): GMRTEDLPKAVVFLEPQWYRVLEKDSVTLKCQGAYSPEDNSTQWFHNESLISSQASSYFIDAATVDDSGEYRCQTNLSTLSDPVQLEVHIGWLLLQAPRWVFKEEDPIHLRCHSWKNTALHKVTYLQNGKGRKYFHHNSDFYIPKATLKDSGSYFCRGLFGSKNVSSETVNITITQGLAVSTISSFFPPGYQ

B1: GpH7-A5/GpH7-B3 variant K326_08L/GpL16-k0 (antibody, human IgG1, kappa)
heavy 1: not shown
heavy 2: not shown
light: DIVMTQSPLSLPVTPGEPASISCQASESLVHSNRNTYLHWYLQKPGQSPQLLIYKVSNRFSGVPDRFSGSGSGTDFTLKISRVEAEDVGVYYCSQNTHVPPTFGQGTKVEIERTVAAPSVFIFPPSDEQLKSGTASVVCLLNNFYPREAKVQWKVDNALQSGNSQESVTEQDSKDSTYSLSSTLTLSKADYEKHKVYACEVTHQGLSSPVTKSFNRGEC
notes: heterodimerized IgG1, mutation in one H chain only; also called He Ab
On to B1, for which the He/Con_3a is 114 % of control (=100).

B2: GpH7-A5/GpH7-B3 variant K334_07I/GpL16-k0 (antibody, human IgG1, kappa)
heavy 1: not shown
heavy 2: not shown
light: DIVMTQSPLSLPVTPGEPASISCQASESLVHSNRNTYLHWYLQKPGQSPQLLIYKVSNRFSGVPDRFSGSGSGTDFTLKISRVEAEDVGVYYCSQNTHVPPTFGQGTKVEIERTVAAPSVFIFPPSDEQLKSGTASVVCLLNNFYPREAKVQWKVDNALQSGNSQESVTEQDSKDSTYSLSSTLTLSKADYEKHKVYACEVTHQGLSSPVTKSFNRGEC
notes: as for B1
Turning to B2, the He/Con_3a is 151 % of control (=100).

B3: GpH7-A5/GpH7-B3 variant K334_02A/GpL16-k0 (antibody, human IgG1, kappa)
heavy 1: not shown
heavy 2: not shown
light: DIVMTQSPLSLPVTPGEPASISCQASESLVHSNRNTYLHWYLQKPGQSPQLLIYKVSNRFSGVPDRFSGSGSGTDFTLKISRVEAEDVGVYYCSQNTHVPPTFGQGTKVEIERTVAAPSVFIFPPSDEQLKSGTASVVCLLNNFYPREAKVQWKVDNALQSGNSQESVTEQDSKDSTYSLSSTLTLSKADYEKHKVYACEVTHQGLSSPVTKSFNRGEC
notes: as for B1
With B3, the He/Con_3a is 147 % of control (=100).

B4: GpH7-A5/GpH7-B3 variant K334_03V/GpL16-k0 (antibody, human IgG1, kappa)
heavy 1: not shown
heavy 2: not shown
light: DIVMTQSPLSLPVTPGEPASISCQASESLVHSNRNTYLHWYLQKPGQSPQLLIYKVSNRFSGVPDRFSGSGSGTDFTLKISRVEAEDVGVYYCSQNTHVPPTFGQGTKVEIERTVAAPSVFIFPPSDEQLKSGTASVVCLLNNFYPREAKVQWKVDNALQSGNSQESVTEQDSKDSTYSLSSTLTLSKADYEKHKVYACEVTHQGLSSPVTKSFNRGEC
notes: as for B1
With B4, the He/Con_3a was 150 % of control (=100).

B5: GpH7-A5/GpH7-B3 variant K334_15Y/GpL16-k0 (antibody, human IgG1, kappa)
heavy 1: not shown
heavy 2: not shown
light: DIVMTQSPLSLPVTPGEPASISCQASESLVHSNRNTYLHWYLQKPGQSPQLLIYKVSNRFSGVPDRFSGSGSGTDFTLKISRVEAEDVGVYYCSQNTHVPPTFGQGTKVEIERTVAAPSVFIFPPSDEQLKSGTASVVCLLNNFYPREAKVQWKVDNALQSGNSQESVTEQDSKDSTYSLSSTLTLSKADYEKHKVYACEVTHQGLSSPVTKSFNRGEC
notes: as for B1
In the case of B5, the He/Con_3a was 141 % of control (=100).

B6: GpH7-A5/GpH7-B3 variant K334_13S/GpL16-k0 (antibody, human IgG1, kappa)
heavy 1: not shown
heavy 2: not shown
light: DIVMTQSPLSLPVTPGEPASISCQASESLVHSNRNTYLHWYLQKPGQSPQLLIYKVSNRFSGVPDRFSGSGSGTDFTLKISRVEAEDVGVYYCSQNTHVPPTFGQGTKVEIERTVAAPSVFIFPPSDEQLKSGTASVVCLLNNFYPREAKVQWKVDNALQSGNSQESVTEQDSKDSTYSLSSTLTLSKADYEKHKVYACEVTHQGLSSPVTKSFNRGEC
notes: as for B1
For B6, the He/Con_3a was 145 % of control (=100).

B7: GpH7-A5/GpH7-B3 variant K326_14T/GpL16-k0 (antibody, human IgG1, kappa)
heavy 1: not shown
heavy 2: not shown
light: DIVMTQSPLSLPVTPGEPASISCQASESLVHSNRNTYLHWYLQKPGQSPQLLIYKVSNRFSGVPDRFSGSGSGTDFTLKISRVEAEDVGVYYCSQNTHVPPTFGQGTKVEIERTVAAPSVFIFPPSDEQLKSGTASVVCLLNNFYPREAKVQWKVDNALQSGNSQESVTEQDSKDSTYSLSSTLTLSKADYEKHKVYACEVTHQGLSSPVTKSFNRGEC
notes: as for B1
For B7, the He/Con_3a was 126 % of control (=100).

B8: GpH7-A5/GpH7-B3 variant K334_09D/GpL16-k0 (antibody, human IgG1, kappa)
heavy 1: not shown
heavy 2: not shown
light: DIVMTQSPLSLPVTPGEPASISCQASESLVHSNRNTYLHWYLQKPGQSPQLLIYKVSNRFSGVPDRFSGSGSGTDFTLKISRVEAEDVGVYYCSQNTHVPPTFGQGTKVEIERTVAAPSVFIFPPSDEQLKSGTASVVCLLNNFYPREAKVQWKVDNALQSGNSQESVTEQDSKDSTYSLSSTLTLSKADYEKHKVYACEVTHQGLSSPVTKSFNRGEC
notes: as for B1
Regarding B8, the He/Con_3a is 160 % of control (=100).

B9: GpH7-A5/GpH7-B3 variant K334_16H/GpL16-k0 (antibody, human IgG1, kappa)
heavy 1: not shown
heavy 2: not shown
light: DIVMTQSPLSLPVTPGEPASISCQASESLVHSNRNTYLHWYLQKPGQSPQLLIYKVSNRFSGVPDRFSGSGSGTDFTLKISRVEAEDVGVYYCSQNTHVPPTFGQGTKVEIERTVAAPSVFIFPPSDEQLKSGTASVVCLLNNFYPREAKVQWKVDNALQSGNSQESVTEQDSKDSTYSLSSTLTLSKADYEKHKVYACEVTHQGLSSPVTKSFNRGEC
notes: as for B1
Consider B9, for which the He/Con_3a is 134 % of control (=100).

B10: GpH7-A5/GpH7-B3 variant K326_19Q/GpL16-k0 (antibody, human IgG1, kappa)
heavy 1: not shown
heavy 2: not shown
light: DIVMTQSPLSLPVTPGEPASISCQASESLVHSNRNTYLHWYLQKPGQSPQLLIYKVSNRFSGVPDRFSGSGSGTDFTLKISRVEAEDVGVYYCSQNTHVPPTFGQGTKVEIERTVAAPSVFIFPPSDEQLKSGTASVVCLLNNFYPREAKVQWKVDNALQSGNSQESVTEQDSKDSTYSLSSTLTLSKADYEKHKVYACEVTHQGLSSPVTKSFNRGEC
notes: as for B1
As for B10, the He/Con_3a was 106 % of control (=100).

B11: GpH7-A5/GpH7-B3 variant Q295_10E/GpL16-k0 (antibody, human IgG1, kappa)
heavy 1: not shown
heavy 2: not shown
light: DIVMTQSPLSLPVTPGEPASISCQASESLVHSNRNTYLHWYLQKPGQSPQLLIYKVSNRFSGVPDRFSGSGSGTDFTLKISRVEAEDVGVYYCSQNTHVPPTFGQGTKVEIERTVAAPSVFIFPPSDEQLKSGTASVVCLLNNFYPREAKVQWKVDNALQSGNSQESVTEQDSKDSTYSLSSTLTLSKADYEKHKVYACEVTHQGLSSPVTKSFNRGEC
notes: as for B1
As for B11, the He/Con_3a was 100 % of control (=100).
